Measurements from doi:10.1101/596171.

Molecular target: T1, HIS-GST-Nxf3 (66-336), RRM-LRR domain (Drosophila melanogaster, UniProt Q8IQK4 66-336)
T1 sequence: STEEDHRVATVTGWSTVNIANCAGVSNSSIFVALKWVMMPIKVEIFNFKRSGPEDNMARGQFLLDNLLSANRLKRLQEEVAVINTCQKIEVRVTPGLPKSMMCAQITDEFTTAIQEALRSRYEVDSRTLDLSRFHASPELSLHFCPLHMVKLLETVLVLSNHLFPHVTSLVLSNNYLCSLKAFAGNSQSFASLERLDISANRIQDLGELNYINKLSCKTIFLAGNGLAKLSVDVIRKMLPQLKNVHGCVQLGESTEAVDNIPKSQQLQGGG
Assay: EMSA

## CUCAUCUUGGUCGUACGCGGAAUAGUUUAAACUGU (ssRNA) [35 nt ssRNA]
  binding result: binds
